Publication PMC11774035

Target: T1, His6-Lrp (Klebsiella oxytoca MIT 09-7231) (UniProt A0A181XPK7)
T1 sequence: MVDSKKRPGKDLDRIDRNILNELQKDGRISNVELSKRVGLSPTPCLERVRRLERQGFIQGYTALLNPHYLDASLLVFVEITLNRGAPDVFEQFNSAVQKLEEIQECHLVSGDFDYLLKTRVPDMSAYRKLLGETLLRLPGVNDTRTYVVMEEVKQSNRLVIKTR
Assay: EMSA
Details: 40 mM HEPES ([…], room temperature 20 min

Sequence | binding
TCTCTCACTCGAAATTTAACAGGTTTTTCGTTTGTTTTTTAACAAAAAAGCGATGAGAAAGTGCTATTCCTTGTCTGTTTACTGGACATGAAAGACGATACGGTTTGCACAAATATTGCACGCCAATGAGTGCATTATGTCAATCAAAA (double strand) [aroX-npsA fragment 1] | no binding
TCTCTCCTGGAGAATTAGGAACGTTCACACGCATAAAATCTTCTCTTGAAGAAGAAATTAAAGATCTAAAGAAATGCCGCCAGCTTACCGTGAGATGCTTCTAAGAAAACACCGCAAAACAAGCAACATATAAGCAACACAAACATAACT (double strand) [aroX-npsA fragment 3] | no binding
